Source: patent US7018836

How the values were obtained:
[1] = target: human P-TEFb from HeLa extract, detected through its kinase subunit PITALRE (human); assay: cell-based or functional assay
GST-Tat 1 86R = GST-Tat 1 86R (UniProt P04608)

human P-TEFb from HeLa extract, detected through its kinase subunit PITALRE (human), sequence (P50750 whole entry): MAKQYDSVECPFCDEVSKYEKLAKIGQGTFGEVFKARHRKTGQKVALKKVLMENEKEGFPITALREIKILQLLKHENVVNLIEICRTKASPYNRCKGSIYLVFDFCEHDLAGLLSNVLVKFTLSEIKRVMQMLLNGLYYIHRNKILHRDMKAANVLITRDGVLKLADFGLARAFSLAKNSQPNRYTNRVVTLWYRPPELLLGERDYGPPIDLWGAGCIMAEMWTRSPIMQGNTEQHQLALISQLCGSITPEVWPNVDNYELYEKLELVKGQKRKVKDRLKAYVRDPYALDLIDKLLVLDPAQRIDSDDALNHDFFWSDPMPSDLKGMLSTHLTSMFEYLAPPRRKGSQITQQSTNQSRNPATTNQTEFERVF
GST-Tat 1 48Δ, sequence (P08515 1-218, tags or fused parts left off): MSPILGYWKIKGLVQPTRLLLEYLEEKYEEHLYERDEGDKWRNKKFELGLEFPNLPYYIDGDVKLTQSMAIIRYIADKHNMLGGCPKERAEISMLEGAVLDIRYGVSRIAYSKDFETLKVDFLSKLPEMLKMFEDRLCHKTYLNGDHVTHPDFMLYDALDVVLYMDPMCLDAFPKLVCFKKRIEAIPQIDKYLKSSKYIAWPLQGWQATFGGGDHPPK

**Q.** “GST-Tat 1 48Δ (from UniProt P08515 1-218; P04608 1-48)” was tested. Which TAK activity (assayed by GST-Tat48A pull-down) after depletion of human P-TEFb from HNE by antibodies to PITALRE [1] did it give?
**A.** < 2%

**Q.** With “86 residue HIV-1 Tat followed by a streptavidin binding tag at its carboxyl terminus (from UniProt P04608 1-86)” as the substance, how does the runoff transcription from the HIV-1 LTR TAR template in HNE, continuous labeling [1] read?
**A.** 12 fold

**Q.** For “human P-TEFb from HeLa extract, detected through its kinase subunit PITALRE”, which “phosphorylation of the CTD of RNA polymerase II” value (GST-Tat 1 86R) is on record?
**A.** The GST-Tat 1 86R/P-TEFb protein complex can phosphorylate the CTD of RNA polymerase II
